For data set [1], the target named is T1, Goodpasture antigen binding protein (GPBP) (UniProt Q9Y5P4 1-624).
T1 construct: Protein kinase; Fusion parts are not written as pieces
T1 sequence (looked up): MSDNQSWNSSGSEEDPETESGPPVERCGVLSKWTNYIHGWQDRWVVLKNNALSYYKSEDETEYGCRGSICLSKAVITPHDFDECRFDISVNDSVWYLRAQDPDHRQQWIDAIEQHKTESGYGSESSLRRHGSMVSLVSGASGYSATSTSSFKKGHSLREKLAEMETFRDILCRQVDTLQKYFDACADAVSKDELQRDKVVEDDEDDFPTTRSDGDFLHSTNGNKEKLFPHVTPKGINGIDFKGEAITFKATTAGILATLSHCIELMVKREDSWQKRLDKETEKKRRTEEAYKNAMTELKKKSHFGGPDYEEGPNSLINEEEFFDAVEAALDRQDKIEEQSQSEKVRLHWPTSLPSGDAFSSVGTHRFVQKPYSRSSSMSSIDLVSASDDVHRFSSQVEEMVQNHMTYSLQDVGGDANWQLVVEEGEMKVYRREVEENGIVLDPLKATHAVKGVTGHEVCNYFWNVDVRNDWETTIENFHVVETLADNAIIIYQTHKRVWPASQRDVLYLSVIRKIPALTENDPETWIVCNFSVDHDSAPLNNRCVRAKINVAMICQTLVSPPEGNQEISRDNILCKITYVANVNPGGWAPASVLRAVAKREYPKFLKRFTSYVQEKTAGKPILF
Nature of the data set: yeast two-hybrid, β-galactosidase colony lift. The protocol: Deletion mutants were obtained using specific primers and PCR, followed by cloning of the resulting cDNAs in the pGBT9 and pGAD424 vectors. The assays were performed in SFY526 or HF7c Saccharomyces cerevisiae strains, with pGBT9 as GAL4 binding domain vector and pGAD424 as GAL4 activation domain vector, by the lift colony assay procedure. Briefly, the yeast cells were co-transformed with constructs of both binding domain and activation domain vectors, and the co-transformants were selected in medium deficient in both tryptophan and leucine. After five days of incubation at 30° C. the colonies were tested for the expression of β-galactosidase with X-Gal substrate (0.75 mg/ml). […] When the assays were performed with the HF7c strain, the interactions were assessed by the lift colony assay procedure and by growth in medium deficient in histidine, tryptophan and leucine. For yeast three-hybrid system, we used the pBRIDGE vector, which allows the conditional expression of a third protein apart from the usual GAL4 binding and activation domain-fusion proteins of the two-hybrid system. In this case, the expression of GPBP or I-20 or GIP90 was driven by Met25 promoter, active in absence of methionine. In these experiments, the transformed SFY526 cells were plated in medium deficient in tryptophan, leucine and methionine, and subjected to the colony lift assay after five days at 30° C. […]

The target in data set [2] is T2, pol κ (UniProt Q9UBT6 1-870).
T2 construct: Tested in yeast two-hybrid (GAL4 domain fusion); also called primary protein product of the POLK
T2 sequence (looked up): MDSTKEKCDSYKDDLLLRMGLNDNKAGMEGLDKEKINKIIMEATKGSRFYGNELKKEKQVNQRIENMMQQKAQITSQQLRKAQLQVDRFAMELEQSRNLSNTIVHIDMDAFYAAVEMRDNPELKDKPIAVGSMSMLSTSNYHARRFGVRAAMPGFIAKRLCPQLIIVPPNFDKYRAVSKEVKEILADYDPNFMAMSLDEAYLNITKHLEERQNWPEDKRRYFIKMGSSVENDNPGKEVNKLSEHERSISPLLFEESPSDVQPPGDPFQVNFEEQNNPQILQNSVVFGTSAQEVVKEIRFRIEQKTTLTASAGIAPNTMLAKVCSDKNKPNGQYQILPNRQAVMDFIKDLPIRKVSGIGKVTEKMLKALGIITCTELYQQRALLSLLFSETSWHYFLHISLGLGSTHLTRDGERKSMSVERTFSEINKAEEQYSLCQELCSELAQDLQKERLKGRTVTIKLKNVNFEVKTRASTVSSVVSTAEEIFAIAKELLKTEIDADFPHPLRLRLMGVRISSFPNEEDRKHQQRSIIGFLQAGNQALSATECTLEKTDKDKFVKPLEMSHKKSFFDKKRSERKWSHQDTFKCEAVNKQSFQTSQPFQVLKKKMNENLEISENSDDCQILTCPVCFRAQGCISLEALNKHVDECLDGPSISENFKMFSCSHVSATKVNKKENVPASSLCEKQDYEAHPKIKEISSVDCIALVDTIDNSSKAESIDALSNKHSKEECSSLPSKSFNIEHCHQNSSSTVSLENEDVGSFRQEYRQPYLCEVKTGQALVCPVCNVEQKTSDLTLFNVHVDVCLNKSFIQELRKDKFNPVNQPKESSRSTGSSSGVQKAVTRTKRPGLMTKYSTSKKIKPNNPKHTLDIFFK
Nature of the data set: yeast two-hybrid.

Data set [3] concerns the molecule itself. Briefly: yeast two-hybrid with I-20 deletion mutants. Here is the method: The production of additional I-20 deletion mutants and their use in specific two hybrid studies permitted the identification of two specific regions of I-20 that are essential for GPBP interaction as well as the identification of other residues directly involved but not essential for the interaction (FIG. 4).
Deletion mutants were obtained using specific primers and PCR, followed by cloning of the resulting cDNAs in the pGBT9 and pGAD424 vectors. The assays were performed in SFY526 or HF7c Saccharomyces cerevisiae strains, with pGBT9 as GAL4 binding domain vector and pGAD424 as GAL4 activation domain vector, by the lift colony assay procedure. Briefly, the yeast cells were co-transformed with constructs of both binding domain and activation domain vectors, and the co-transformants were selected in medium deficient in both tryptophan and leucine. After five days of incubation at 30° C. the colonies were tested for the expression of β-galactosidase with X-Gal substrate (0.75 mg/ml). […] When the assays were performed with the HF7c strain, the interactions were assessed by the lift colony assay procedure and by growth in medium deficient in histidine, tryptophan and leucine.

The target of data set [4] is T1, Goodpasture antigen binding protein …. Nature of the data set: yeast two-hybrid.

B1: I-20 (other)
chain: RDEVIGILKAEKMDLALLEAQYGFVTPKKVLEALQRDAFQAKSTPWQEDIYEKPMNELDKVVEKHKESYRRILGQLLVAEKSRRQTILELEEEKRKHKEYMEKSDEFICLLEQECERLKKLIDQEIKSQEEKEQEKEKRVTTLKEELTKLKSFALMVVDEQQRLTAQLTLQRQKIQELTTNAKETHTKLALAEARVQEEEQKATRLEKELQTQTTKFHQDQDTIMAKLTNEDSQNRQLQQKLAALSRQIDELEETNRSLRKAEEE
notes: Tested as GAL4 domain fusion in yeast two-hybrid and three-hybrid; fusion parts are not written as pieces; also called 265 residue polypeptide I-20
Regarding B1, the binding result in data set [1] is given as “binds”; in data set [2] it was “no binding”; in data set [3], “binds”.

B2: GIP90 with deletion of the N terminal 240-residues (other)
chain: MVVDEQQRLTAQLTLQRQKIQELTTNAKETHTKLALAEARVQEEEQKATRLEKELQTQTTKFHQDQDTIMAKLTNEDSQNRQLQQKLAALSRQIDELEETNRSLRKAEEELQDIKEKISKGEYGNAGIMAEVEELRKRVLDMEGKDEELIKMEEQCRDLNKRLERETLQSKDFKLEVEKLSKRIMALEKLEDAFNKSKQECYSLKCNLEKERMTTKQLSQELESLKVRIKELEAIESRLEKTEFTLKEDLTKLKTLTVMFVDERKTMSEKLKKTEDKLQAASSQLQVEQNKVTTVTEKLIEETKRALKSKTDVEEKMYSVTKERDDLKNKLKAEEEKGNDLLSRVNMLKNRLQSLEAIEKDFLKNKLNQDSGKSTTALHQENNKIKELSQEVERLKLKLKDMKAIEDDLMKTEDEYETLERRYANERDKAQFLSKELEHVKMELAKYKLAEKTETSHEQWLFKRLQEEEAKSGHLSREVDALKEKIHEYMATEDLICHLQGDHSVLQKKTKSTRKQEQRFRKRD
notes: Deletion mutant in yeast two-hybrid (GAL4 domain fusion)
As for B2, the binding result in data set [4] is reported as “no binding”.

For the origin of these results see patent US20030108554A1 (published 2003).
